Experimental data as given in patent publication US20220259306A1 (SHANGHAI HYAMAB BIOTECH, published 2022).
Positions count from the first letter of the chain named. Values belong to the binder of their own block, whether it stands above or below them.

Columns and labels:
[1] = biological target: T1, monkey NKG2A/CD94 on the cell surface (CHOk1-cNKG2A/CD94 stable cell line) (macaque, UniProt Q9MZJ3 1-233; Q9MZK9 1-179); experiment: FACS of scFv on cells with macaque NKG2A (cell line not given)
T1 construct: also called macaque NKG2A; cyno NKG2A
T1 sequence (Q9MZJ3 other isoform, or with tags, fused parts or gaps, chain 1 of 2): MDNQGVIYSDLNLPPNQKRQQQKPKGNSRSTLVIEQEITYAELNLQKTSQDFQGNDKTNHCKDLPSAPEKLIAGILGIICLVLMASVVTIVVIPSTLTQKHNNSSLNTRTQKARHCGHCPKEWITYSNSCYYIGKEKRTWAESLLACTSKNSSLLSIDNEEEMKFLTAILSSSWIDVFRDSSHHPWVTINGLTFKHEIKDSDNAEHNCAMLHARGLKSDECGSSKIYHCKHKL
T1 sequence (Q9MZK9 whole entry, chain 2 of 2): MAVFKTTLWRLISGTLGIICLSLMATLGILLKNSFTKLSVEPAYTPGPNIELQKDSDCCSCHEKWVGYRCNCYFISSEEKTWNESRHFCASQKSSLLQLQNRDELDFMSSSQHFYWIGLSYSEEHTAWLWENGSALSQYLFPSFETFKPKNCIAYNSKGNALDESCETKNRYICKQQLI

[2] = biological target: T2, hFc-tagged NKG2A/CD94 protein (NKG2A/CD94-hFc), immunogen A (human, UniProt P26715 94-233; Q13241 32-179, biotin-labeled in the Octet assays (site not stated)); experiment: ELISA of scFv supernatant, selection threshold
T2 construct: Heterodimer of the extracellular domains of NKG2A and CD94, each with hFc; also called human-derived NKG2A/CD94-ECD-Fc; hNKG2A/CD94-ECD-Fc; not shown: human IgG Fc fragment (hFc) of the pCpC vector
T2 sequence (P26715 94-233 limits assumed, chain 1 of 2): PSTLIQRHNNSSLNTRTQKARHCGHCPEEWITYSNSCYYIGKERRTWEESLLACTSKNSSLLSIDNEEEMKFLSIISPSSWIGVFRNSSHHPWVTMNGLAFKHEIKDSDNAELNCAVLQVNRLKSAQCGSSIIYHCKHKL
T2 sequence (Q13241 32-179 limits assumed, chain 2 of 2): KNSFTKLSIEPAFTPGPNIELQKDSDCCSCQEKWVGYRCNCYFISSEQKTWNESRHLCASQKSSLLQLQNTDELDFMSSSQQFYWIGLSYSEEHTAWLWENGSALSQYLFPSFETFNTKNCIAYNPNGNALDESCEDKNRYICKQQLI

[3] = biological target: T2, hFc-tagged NKG2A/CD94 protein …; experiment: BLI (Octet), biotinylated HNKG2A/CD94-ECD-Fc on streptavidin sensor, method of Example 5B
From the text: (§1) An Octet red96 instrument (purchased from Fortiebio) was used to determine the affinity constant. The specific operations and methods are based on the instrument manual and the detailed methods provided by the manufacturer. Specifically: using a streptavidin sensor (SA sensor, purchased from Fortiebio) for affinity determination.

[4] = biological target: T1, monkey NKG2A/CD94 on the cell surface …; experiment: FACS on CHOK1-cNKG2A/CD94 cells
[5] = biological target: T3, human NKG2A/CD94 on the cell surface (CHOk1-hNKG2A/CD94 stable cell line) (human, UniProt P26715 1-233; Q13241 1-179); experiment: FACS on CHOK1-hNKG2A/CD94 cells, Alexa 488 secondary antibody
T3 construct: whole, on cells; 93 and 94 are nucleic acids; also called human NKG2A on the cell surface; NKG2A/CD94 cells

[6] = biological target: T3, human NKG2A/CD94 on the cell surface …; experiment: FACS blocking assay: HLA-E-PE binding to CHOk1-hNKG2A/CD94 cells in the presence of the antibody
[7] = biological target: T1, monkey NKG2A/CD94 on the cell surface …; experiment: FACS on CHOK1-cNKG2A/CD94 cells, Alexa 488 secondary antibody
From the text: The pCHO1.0 plasmid containing the nucleotide sequence encoding the full-length amino acid sequence of human-derived NKG2A/CD94 as described in step (2) of Example 1 was transfected into the CHOK1 cell line to obtain a CHOK1 stable cell line containing human NKG2A and CD94 (here referred to as CHOk1-hNKG2A/CD94 stable cell line), the pCHO1.0 plasmid carrying the monkey-derived NKG2A and CD94 full-length genes (the preparation method is the same as the preparation method of pCpC vector with human IgG Fc fragment (hFc) in step (1) “Preparation of immunogen A” in Example 1. The CHOK1 cell line was transfected to obtain the CHOK1 stable cell line containing monkey NKG2A/CD94 (here referred to as the CHOk1-cNKG2A/CD94 stable cell line), the CHOK1-hNKG2C/CD94 stable cell line was prepared with the same method. CHOk1-hNKG2A/CD94 stable cell line, CHOk1-cNKG2A/CD94 stable cell line and CHOK1-hNKG2C/CD94 stable cell line were expanded to 90% confluence in T-75 cell culture flasks, aspirating the medium, washed twice with PBS buffer (purchased from Invitrogen), then treating and collecting the cells with an enzyme-free cell dissociation solution (Versene solution, purchased from Life technology). Washing the cells twice with PBS buffer, after counting the cells, diluting the cells with PBS buffer to 2×10⁶ cells per milliliter, adding 1% goat serum blocking solution, the percentage was the mass percentage, incubated on ice for 30 minutes, and then washed twice with PBS buffer by centrifugation. Suspending the collected cells with FACS buffer (PBS+1%BSA, the percentage was the mass percentage) to 2×10⁶ cells/mL, adding it to 96-wells FACS reaction plate at 100 microliters per well, and adding 100 microliters per well of the purified NKG2A antibody test sample obtained in Example 2, incubated on ice for 2 hours. Washed twice with FACS buffer by centrifugation, and adding 100 microliters of fluorescent (Alexa 488) labeled secondary antibody (purchased from Invitrogen) per well, incubated on ice for 1 hour. Washed 3 times by centrifugation with FACS buffer, then suspending the cells with 100 μl FACS buffer, and using FACS (FACS Calibur, purchased from BD) to detect and analyze the results.

[8] = biological target: T3, human NKG2A/CD94 on the cell surface …; experiment: FACS blocking assay: HLA-E binding to NKG2A/CD94 cells in the presence of the antibody
[9] = biological target: T2, hFc-tagged NKG2A/CD94 protein …; experiment: BLI (Octet red96), biotinylated immunogen A on streptavidin sensor, antibody in solution
From the text: as §1

NKG2E protein = biological target: T4, NKG2E protein (human, UniProt Q07444 94-240, limits assumed); experiment: ELISA on NKG2E protein
T4 construct: construct and source not described
T4 sequence (Q07444 94-240 limits assumed): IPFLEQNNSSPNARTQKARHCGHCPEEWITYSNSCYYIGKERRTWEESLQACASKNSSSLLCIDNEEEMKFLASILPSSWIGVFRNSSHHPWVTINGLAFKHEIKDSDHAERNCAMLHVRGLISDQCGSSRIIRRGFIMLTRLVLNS

[10] = biological target: T1, monkey NKG2A/CD94 on the cell surface …; experiment: FACS on CHOK1-cNKG2A/CD94 cells; remark: listed apart in the source

binding result [1]: binds
OD450 nm reading ratio NKG2A/CD94-ECD-Fc / NKG2C/CD94-ECD-Fc [2]: 4
B1: 2F10-2 (scFv clone) (scFv, V domains shown)
VH: QVQLQQSVAELVRPGASVKLSCTASGFNIKNAYVHWVKQRPEQGLEWIGQIDPANGNTKYAPKFQAKATITADTSSNTVYLQLSSLTSEDTAVYYCARSYLGGQYYFDYSGQGTTLTVSS
VL: DILMTQSPSSMYASLGERVTITCKASQDINSYLSWFQQKPGKSPKTLIYRANRLVDGVPSRFSGSGSGQDYSLTISSLEYEDMGIYYCLQYDEFPLTFGAGTKLEIK
notes: scFv

binding result (NKG2E protein): no binding (tested: 66.67 nM)
EC50 (read off the curve) [7]: ~1000 pM
Kd [9]: 20.2 pM
koff [9]: 2.26e-05 s⁻¹
kon [9]: 1.12e+06 M⁻¹ s⁻¹
B6: Mab033 (antibody, V domains shown)
VH: EVQLQQSVAEFVRPGASVRLSCTASGFNIENTYIHWLKQRPEQGLEWIGRIDPANGDTQYDPKFQGKATLTAATSSNTAYLQLSGLTSEDTAIYYCTRYGDYLFYYSLKYWGQGTSVTVSS
VL: DIVMTQAAPSVSVTPGESVSISCRSSKSLLHSNGNTYLYWFLQRPGQSPQLLIYRMSNLASGVPDRFSGSGSGTAFTLRISRVEAEDVGVYYCMQHLESPYTFGGGTKLEIK

binding result (NKG2E protein): no binding (tested: 66.67 nM)
EC50 (read off the curve) [7]: ~1000 pM
Kd [9]: 23.9 pM
koff [9]: 2.45e-05 s⁻¹
kon [9]: 1.03e+06 M⁻¹ s⁻¹
B8: Mab032 (antibody, V domains shown)
VH: EVQLQQSVAELVRPGASVRLSCTGSGFNIENTYMHWLKQRPEQGLEWIGRIDPADGDTQYAPKFQGKATITTDTSSNTAYLQLSSLTSEDTAIYYCARYGNYLFYYSMDYWGQGTSVTVSS
VL: B6 VL with S12P, G73A, V90I, S99Y

The next lines start with the binder.

B2: M15-5 (antibody, V domains shown)
VH: QVQLVQSGAEVKKPGASVKVSCKASGFNIQNTYIHWVKQAPGQGLEWIGKIDPANADTKYAPTFQGRATITADTSTNTAYLELSSLRSEDTAVYYCARYRDYLFYYALGYWGQGTTVTVSS
VL: DIVMTQSPLSLPVTPGEPASISCRSSKSLLHSNANTYLYWYLQKPGQSPQLLIYRMSNLASGVPDRFSGSGSGTDFTLKISRVEAEDVGVYYCMQHLEYPYTFGQGTKLEIK
notes: Humanized; also called humanized NKG2A antibody
Kd [3]: < 10.4 pM
koff [3]: < 1e-05 s⁻¹
kon [3]: 958000 M⁻¹ s⁻¹
EC50 (read off the curve) [4]: ~1000 pM

B3: Tab1 (Z270) (antibody, V domains shown)
VH: EVQLVESGGGLVKPGGSLRLSCAASGFTFSSHSMNWVRQAPGKGLEWVSAISSSSSYIYYADSVKGRFTISRDNAKNSLYLQMNSLRAEDTAVYYCAREEWGLPFDYWGQGTLVTVSS
VL: AIQLTQSPSSLSASVGDRVTITCRASQGISSALAWYQQKPGKAPKLLIYDASSLKSGVPSRFSGSGSGTDFTLTISSLQPEDFATYYCQQFNSYPLTFGQGTRLEIK
EC50 (read off the curve) [5]: ~400 pM
IC50 (read off the curve) [6]: ~700 pM
Kd [3]: 182 pM
koff [3]: 0.00162 s⁻¹
kon [3]: 8.87e+06 M⁻¹ s⁻¹
EC50 (read off the curve) [7]: ~2000 pM
IC50 (read off the curve) [8]: ~1000 pM
Kd [9]: 142 pM
koff [9]: 0.000189 s⁻¹
kon [9]: 1.33e+06 M⁻¹ s⁻¹

B4: Mab031 (antibody, V domains shown)
VH: B8 VH with E30Q, M34I, L37V, D55N, Q59K, T72A, A97T, F104Y, M108L
VL: B6 VL with S12P, V88M, S99Y
binding result (NKG2E protein): no binding (tested: 66.67 nM)
EC50 (read off the curve) [7]: ~1000 pM
Kd [9]: 18.1 pM
koff [9]: 1.84e-05 s⁻¹
kon [9]: 1.02e+06 M⁻¹ s⁻¹

B5: Mpb416 (antibody, V domains shown)
VH: QVQLQQSVAELVRPGASVKLSCTASGFNIQNTYIHWVKQRPEQGLEWIGKIDPANGDTKYAPTFQGKATITADTSSNTAYLQLSSLTPEDTAIYYCARYRDYLFYYALGYWGQGTSVTVSS
VL: B6 VL with A7S, S12P, S99Y
notes: also called 12G8 (as full antibody)
binding result (NKG2E protein): no binding (tested: 66.67 nM)
EC50 (read off the curve) [7]: ~700 pM
Kd [9]: 10.4 pM
koff [9]: 1.04e-05 s⁻¹
kon [9]: 995000 M⁻¹ s⁻¹

B7: M15 (antibody, V domains shown)
VH: B5 VH with G56A
VL: B6 VL with A7S, S12P, G34A, S99Y
notes: parent of the humanized M15-1 to M15-15; also called M15 antibody; Mpb416-M15
EC50 (read off the curve) [10]: ~800 pM
EC50 (read off the curve) [4]: ~800 pM
